Test results taken from the RNAGym collection of RNA variant scans (doi:10.1021/acssynbio.7b00057).

B1: Pistol ribozyme (parent)
chain: GGGUCGUUGUUCCAUAAUCGCGUGGAUAUGGCACGCAAGUUUCUACCGGGCACCGUAAAUGUCCGACUGGAGCCGUUCGGGCGGCUAUAAACAGACCUCAGGCCCGAAGCGUGGCGGCACCUGCCGCCGGUGGUAAAAAAGAUCGGAAGAGCACACGUCU

Variants of: B1
Experiment: aptazyme ON/OFF ratio, guanine; higher = stronger switching; co-transcriptional cleavage with and without guanine

Variant | aptazyme ON/OFF ratio
U7C U8A G9U U10G U11G C12U C13A | 1.11
U7C U8A G9U U10G U11G C12U C13G | 1.15
U7C U8A G9U U10G U11G C12U C13U | 1.3
U7C U8A U11A C12G C13G | 1.16
U7C U8A U11A C12G C13A | 1.09
U7C U8A U11A C12G C13U | 1.12
U7C U8A U11A C12A C13G | 1.08
U7C U8A U11A C12A C13U | 1.26
U7C U8A U11A C12A C13A | 1.12
U7C U8A U10G C12A C13A | 1.2
U7C U8A U10G C12A C13G | 1.07
U7C U8A U10G C12A C13U | 1.27
U7C U8A G9U U11C C13A | 1.04
U7C U8A G9U U11C C13U | 1.03
U7C U8A G9U U11C C13G | 1.03
U7C U8A U10C U11C C13A | 1.04
U7C U8A U10C U11C C13U | 1.01
U7C U8A U10C U11C C13G | 1.09
U7C U8A U10A U11G C13A | 1.15
U7C U8A U10A U11G C13U | 1.21
U7C U8A U10A U11G C13G | 1.04

Variant | aptazyme ON/OFF ratio
U7C U8A U11A C13A | 1.15
U7C U8A U11A C13U | 1.12
U7C U8A U11A C13G | 1.08
U7C U8A G9U U10G U11C C12A C13G | 1.16
U7C U8A G9U U10G U11C C12A C13U | 1.27
U7C U8A G9U U10G U11C C12A C13A | 1.18
U7C U8A U10A C13A | 1.07
U7C U8A U10A C13U | 1.06
U7C U8A U10A C13G | 1.08
U7C U8A U10C U11C C12A C13G | 1.27
U7C U8A U10C U11C C12A C13A | 1.18
U7C U8A U10C U11C C12A C13U | 1.27
U7C U8A G9U U10G C12A C13G | 1.13
U7C U8A G9U U10G C12A C13U | 1.17
U7C U8A G9U U10G C12A C13A | 1.19
U7C U8A U10A U11C C12G | 1.13
U7C U8A U10A U11C C12U | 1.01
U7C U8A U10A U11C C12A | 1.09
U7C U8A G9U U10C U11G C12U C13U | 1.15
U7C U8A G9U U10C U11G C12U C13A | 1.12
U7C U8A G9U U10C U11G C12U C13G | 1.13

Variant | aptazyme ON/OFF ratio
U7C U8A U10A U11A C12A C13U | 1.31
U7C U8A U10A U11A C12A C13A | 1.25
U7C U8A U10A U11A C12A C13G | 1.17
U7C U8A U10A C12A C13U | 1.15
U7C U8A U10A C12A C13G | 1.21
U7C U8A U10A C12A C13A | 1.17
U7C U8A U10C C12U C13G | 1.17
U7C U8A U10C C12U C13U | 1.54
U7C U8A U10C C12U C13A | 1.17
U7C U8A U10G C12G C13A | 1.13
U7C U8A U10G C12G C13G | 1.15
U7C U8A U10G C12G C13U | 1.41
U7C U8A G9U U10G C12G C13A | 1.12
U7C U8A G9U U10G C12G C13G | 1.12
U7C U8A G9U U10G C12G C13U | 1.22
U7C U8A U10G U11G C12A C13G | 1.09
U7C U8A U10G U11G C12A C13A | 1.18
U7C U8A U10G U11G C12A C13U | 1.29
U7C U8A U10A U11G C12G C13A | 1.03
U7C U8A U10A U11G C12G C13G | 1.13
U7C U8A U10A U11G C12G C13U | 1.24

Variant | aptazyme ON/OFF ratio
U7C U8A G9U U10G U11A C12A C13U | 1.21
U7C U8A G9U U10G U11A C12A C13G | 1.09
U7C U8A G9U U10G U11A C12A C13A | 1.35
U7C U8A U10A U11G C12A C13G | 1.17
U7C U8A U10A U11G C12A C13U | 1.19
U7C U8A U10A U11G C12A C13A | 1.12
U7C U8A U10G U11C C12A C13U | 1.45
U7C U8A U10G U11C C12A C13A | 1.37
U7C U8A U10G U11C C12A C13G | 1.11
U7C U8A U10C U11G C12A C13G | 1.21
U7C U8A U10C U11G C12A C13A | 1.16
U7C U8A U10C U11G C12A C13U | 1.14
U7C U8A U10G U11G C12U C13U | 1.44
U7C U8A U10G U11G C12U C13G | 1.22
U7C U8A U10G U11G C12U C13A | 1.21
U7C U8A G9U U11G C12U | 1.4
U7C U8A G9U U11G C12G | 1.15
U7C U8A G9U U11G C12A | 1.09
U7C U8A U10C U11A | 1.16
U7C U8A U10C U11C | 1.05
